This test has as its target Src13-GCN4-eGFP/mCherry. Briefly: PIE-FCCS.

Src13-GCN4-eGFP/mCherry registered a fc (fraction correlated), mean of 0.25 and a fc (fraction correlated), median of 0.23.

Source of the values: paper PMC4063175.
